Reference: patent US20200017592A1 (Regeneron, published 2020)
Where a chain is given by its changes, count along the chain named.

T1: full-length human IL-36R on cells (human, UniProt Q9HB29 20-575)
T1 sequence (looked up): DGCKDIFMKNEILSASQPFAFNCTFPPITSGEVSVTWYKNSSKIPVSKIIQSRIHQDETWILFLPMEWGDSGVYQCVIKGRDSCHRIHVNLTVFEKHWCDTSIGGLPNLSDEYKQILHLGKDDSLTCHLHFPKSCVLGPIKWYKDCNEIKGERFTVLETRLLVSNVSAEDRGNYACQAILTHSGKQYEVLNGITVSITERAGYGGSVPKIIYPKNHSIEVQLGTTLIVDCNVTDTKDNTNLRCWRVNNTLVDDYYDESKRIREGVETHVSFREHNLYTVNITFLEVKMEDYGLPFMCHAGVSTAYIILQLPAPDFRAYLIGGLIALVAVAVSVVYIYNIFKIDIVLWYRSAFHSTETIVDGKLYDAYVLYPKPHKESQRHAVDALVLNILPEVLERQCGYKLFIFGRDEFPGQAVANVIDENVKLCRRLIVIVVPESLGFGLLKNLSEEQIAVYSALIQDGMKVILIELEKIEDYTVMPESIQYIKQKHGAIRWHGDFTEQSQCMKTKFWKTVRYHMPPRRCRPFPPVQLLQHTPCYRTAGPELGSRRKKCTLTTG

T2: Macaca fascicularis IL-36R on cells (Macaca fascicularis, UniProt A0A2K5WSK9 20-558)
T2 sequence: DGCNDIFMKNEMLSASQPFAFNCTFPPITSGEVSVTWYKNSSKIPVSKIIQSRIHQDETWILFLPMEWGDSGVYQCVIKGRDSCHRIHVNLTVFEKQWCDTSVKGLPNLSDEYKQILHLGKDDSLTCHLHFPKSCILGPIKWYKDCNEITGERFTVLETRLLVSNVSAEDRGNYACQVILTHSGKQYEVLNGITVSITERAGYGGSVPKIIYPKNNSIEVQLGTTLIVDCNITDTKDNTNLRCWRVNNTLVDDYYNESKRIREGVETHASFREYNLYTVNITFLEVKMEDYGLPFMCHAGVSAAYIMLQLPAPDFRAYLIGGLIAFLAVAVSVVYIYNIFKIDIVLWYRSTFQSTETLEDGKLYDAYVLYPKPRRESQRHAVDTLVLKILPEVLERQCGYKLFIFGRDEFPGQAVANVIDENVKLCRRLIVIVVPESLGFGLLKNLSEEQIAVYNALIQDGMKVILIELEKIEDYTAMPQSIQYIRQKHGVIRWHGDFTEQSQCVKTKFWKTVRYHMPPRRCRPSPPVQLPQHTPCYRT

B1: H4H14706P2 (antibody, human IgG4 S228P, kappa, V domains shown)
VH: EVQLVESGGGLVQPGRSLRLSCTASGFTFDDYAIHWVRQSPGKGLEWVSVISWNSDVIGYADSVKGRFTISRDNAKNSLYLQMNSLRAEDTALYYCAKGYNWNFFDYWGQGTLVTVSS
VL: EIVLTQSPATLSLSPGERATLSCRASQSVSSYLAWYQQKPGQAPRLLIYNAANRATDIPARFSGSGSGTDFTLTISSLEPEDFAVYYCQQRSNWPLTFGGGTKVEIKR
B2: H4H14708P2 (antibody, human IgG4 S228P, kappa, V domains shown)
VH: EVQLVESGGDLVQPGRSLRLSCAASGFTFDDYAMHWVRQAPGKGLEWVSVISWNSDVIAYSDSVKGRFTISRDNAKNSLYLQMNSLRTEDTALYYCTKGHKWSFFDYWGQGTLVTVSS
VL: B1 VL with V29I, Y49F, A51V

Key:
[1] = molecular target: T3, recombinant human IL-36R extracellular domain expressed with a C-terminal myc-myc-hexahistidine tag (human, UniProt Q9HB29 20-337); test: SPR (Biacore 4000), mAb captured on anti-human Fc, 25°C
T3 construct: also called hIL-36R-MMH; hIL-36R.mmH
T3 sequence (Q9HB29 other isoform, or with tags, fused parts or gaps limits assumed): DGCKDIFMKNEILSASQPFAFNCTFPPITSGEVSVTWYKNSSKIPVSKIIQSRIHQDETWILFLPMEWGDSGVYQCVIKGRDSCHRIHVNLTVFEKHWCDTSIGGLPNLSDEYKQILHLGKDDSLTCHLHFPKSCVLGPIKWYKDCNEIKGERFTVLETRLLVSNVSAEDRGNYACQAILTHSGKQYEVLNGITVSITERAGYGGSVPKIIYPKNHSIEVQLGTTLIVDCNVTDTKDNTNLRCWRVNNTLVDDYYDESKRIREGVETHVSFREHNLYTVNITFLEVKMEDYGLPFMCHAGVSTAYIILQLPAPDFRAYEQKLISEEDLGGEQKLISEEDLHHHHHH
Summary of the method: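 Anti-IL-36R mAbs were captured on an amine-coupled mouse anti-human Fc surface, and IL-36R reagents (100 nM to 3.7 nM, 3-fold dilutions) were injected for 4 minutes, then dissociation was followed for 10 minutes in HBS-ET (0.01 M Hepes pH 7.4, 0.15 M NaCl, 3 mM EDTA, 0.05% Tween-20). KD came from 1:1 kinetic fits.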

[2] = molecular target: T1, full-length human IL-36R on cells; test: cell-based or functional assay
[3] = molecular target: T2, Macaca fascicularis IL-36R on cells; test: cell-based or functional assay
[4] = molecular target: T3, recombinant human IL-36R extracellular …; test: SPR (Biacore 4000), mAb captured on anti-human Fc, 37°C
Summary of the method: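 Analyte 100 nM–3.7 nM (3-fold), 4 min association at 30 μL/minute, 10 min dissociation; HBS-ET pH 7.4 running buffer; antibody captured via anti-hFc. ka, kd from 1:1 model fit; KD and t½ derived from rate constants.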

[5] = molecular target: T1, full-length human IL-36R on cells; test: cell-based or functional assay; remark: listed apart in the source

Binder	100 nM hIL-36R-MMH Bound (RU) [1] [RU]	Kd [1] [nM]	koff [1] [s⁻¹]	kon [1] [M⁻¹ s⁻¹]	t½ [1] [min]	IC50, IL-8 production of primary human cells stimulated with 10 nM IL-36α, β and γ [2] [nM]	IC50 [M], NFκB-luciferase, 300 pM hIL-36γ [3] [M]	IC50 [M], NFκB-luciferase, 500 pM hIL-36α [3] [M]	IC50 [M], NFκB-luciferase, 600 pM hIL-36β [3] [M]	Max Inhibition (%), NFκB-luciferase, 300 pM hIL-36γ [3] [%]	Max Inhibition (%), NFκB-luciferase, 500 pM hIL-36α [3] [%]	Max Inhibition (%), NFκB-luciferase, 600 pM hIL-36β [3] [%]	100 nM hIL-36R-MMH Bound (RU) [4] [RU]	Kd [4] [nM]	koff [4] [s⁻¹]	kon [4] [M⁻¹ s⁻¹]	t½ [4] [min]	IC50 [M], NFκB-luciferase, 10 pM hIL-36γ [5] [M]	IC50 [M], NFκB-luciferase, 15 pM hIL-36β [5] [M]	IC50 [M], NFκB-luciferase, 20 pM hIL-36α [5] [M]	further results
B1	89	4.08	0.000495	121000	23	1 to 6	8.5e-11	6e-11	1.2e-10	100	100	100	113	8.65	0.0013	150000	9	1.2e-10	1.2e-10	1e-10	Max Inhibition (%), NFκB-luciferase, 10 pM hIL-36γ [5]: 99%; Max Inhibition (%), NFκB-luciferase, 15 pM hIL-36β [5]: 101%; Max Inhibition (%), NFκB-luciferase, 20 pM hIL-36α [5]: 101%
B2	76	6.82	0.000623	91400	19	1 to 6	1.2e-10	8.9e-11	1.2e-10	100	99	100	106	13.6	0.00186	136000	6	1.6e-10	2e-10	1.3e-10	Max Inhibition (%), NFκB-luciferase, 10 pM hIL-36γ [5]: 99%; Max Inhibition (%), NFκB-luciferase, 15 pM hIL-36β [5]: 100%; Max Inhibition (%), NFκB-luciferase, 20 pM hIL-36α [5]: 101%
